This is an account of results in patent US20220133732A1 (Bicycle, published 2022).

*1 amine or outer side, *2 acyl side, *3 side chain or, on linkers, in order; H or OH if unused. Bridges are numbered along the chain shown (N, C = ends). Where no end group is shown, it is not given here. TBMB = c1c(C[*:1])cc(C[*:3])cc1C[*:2]

The target in test [1] is T1, human carbonic anhydrase IX (CAIX) (human, UniProt Q16790 38-414). Briefly: competition fluorescence polarisation, tracer A-(SEQ ID NO:1)-A-Sar6-K(FI); n = 1.
For test [2], the target named is T1, human carbonic anhydrase IX (CAIX). The experiment in a line: cell-based or functional assay.
The target is the same in test [3]. Briefly: competition fluorescence polarisation, tracer A-(SEQ ID NO:1)-A-Sar6-K(FI).

Consider ACRECWVDGWVECA (linker 2-5-13 via TBMB, Bicyclic peptide on TBMB scaffold) [61-01-08-N001], for which the Ki in test [1] is 5.6 nM.

As for ACTECWVDGWVPCA (linker 2-5-13 via TBMB, Bicyclic peptide on TBMB scaffold) [61-01-02-N001], the “Enzyme IC50” value in test [2] worked out at 815 nM. This molecule registered an inhibitory constant (Ki) in test [3] of 7.13 nM.

In turn, ACEECWVDGWVPCA (linker 2-5-13 via TBMB, Bicyclic peptide on TBMB scaffold) [61-01-05-N001] displayed an inhibitory constant (Ki) in test [1] of 12.2 nM. In other words, the double-digit nanomolar range.

ACLECWVDGWVPCA (linker 2-5-13 via TBMB, Bicyclic peptide on TBMB scaffold) [61-01-04-N001]: the “Enzyme IC50” value in test [2] was 855 nM. The inhibition constant Ki in test [3] amounted to 5.77 nM.

For ACTECWIDGWVPCA (linker 2-5-13 via TBMB, Bicyclic peptide on TBMB scaffold) [61-01-07-N001], the Ki in test [3] came to 7.9 nM. In other words, the single-digit nanomolar range.

Take ACGECWADGWVPCA (linker 2-5-13 via TBMB, Bicyclic peptide on TBMB scaffold) [61-01-01-N001]: the Ki in test [3] came out at 81.5 nM. This Ki is about 10-fold higher than that of the molecule before.

Regarding ACSECWVDGWVSCA (linker 2-5-13 via TBMB, Bicyclic peptide on TBMB scaffold) [61-01-03-N001], in test [3], affinity was put at a Ki of 22.7 nM.

ACGECWVDGWVSCA (linker 2-5-13 via TBMB, Bicyclic peptide on TBMB scaffold) [61-01-09-N001] had an inhibition constant Ki in test [1] of 39.8 nM.

With ACWWCEDITGRPCA (linker 2-5-13 via TBMB, Bicyclic peptide on TBMB scaffold) [61-18-N001], the affinity in test [1], expressed as Ki, was 312 nM.
